Several values for one entry are separate records, joined by “and”; a condition that tells them apart may be missing. Identical values can stand only once. Each block holds one binder with its values, some of them ahead of it.
Key:
[1] = molecular target: T1, IL-1β derived from rhesus monkeys (rhesus monkey, UniProt P48090 117-269); test: not named
T1 construct: also called rhesus IL-1β

[2] = molecular target: naturally produced IL-1β in conditioned medium from peripheral blood mononuclear cells (human, UniProt P01584 117-269, limits assumed); test: cell-based or functional assay
[3] = molecular target: T2, Rec Cynomolgus IL-1β (cynomolgus, UniProt P79182 117-268); test: Biacore, ACZ885 immobilized
T2 construct: also called Rec Cynomolgus IL-β; cynomolgous IL-1beta

[4] = molecular target: T3, Rec Human IL-1α (human, UniProt P01583 113-271); test: Biacore, ACZ885 immobilized
T3 construct: also called human IL-1alpha
T3 sequence (looked up): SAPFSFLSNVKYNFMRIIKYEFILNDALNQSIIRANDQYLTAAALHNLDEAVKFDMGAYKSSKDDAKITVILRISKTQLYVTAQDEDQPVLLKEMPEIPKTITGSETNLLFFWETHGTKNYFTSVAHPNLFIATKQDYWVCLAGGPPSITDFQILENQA

[5] = molecular target: T4, recombinant human IL-1β (human, UniProt P01584 117-269); test: Biacore competition: ACZ885 immobilized on the chip, recombinant human IL-1β (1 nM) injected with increasing soluble IL-1 receptor type I (0-12 nM); % binding of IL-1β to ACZ885; mean ± SEM, n=4
T4 construct: mature; also called Rec Human IL-1β; recombinant human IL-1beta
Protocol: Half-maximum values (IC₅₀) were determined graphically using the Origin 6.0 software The mean±SEM is given (n=4).

binding result [1]: no binding
IC50, inhibition of IL-1β-induced IL-6 secretion from human dermal fibroblasts, cond. medium (NVP-ACZ885 Batch1) [2]: 54 pM and 9.1 ng/ml
IC50, inhibition of IL-1β-induced IL-6 secretion from human dermal fibroblasts, cond. medium (NVP-ACZ885 Batch2) [2]: 7.4 ng/mL
binding result [3]: no binding (tested: 8 nM)
binding result [4]: no binding (tested: 8 nM)
B1: ACZ 885 antibody (antibody, human IgG1, V domains shown)
VH: QVQLVESGGGVVQPGRSLRLSCAASGFTFSVYGMNWVRQAPGKGLEWVAIIWYDGDNQYYADSVKGRFTISRDNSKNTLYLQMNGLRAEDTAVYYCARDLRTGPFDYWGQGTLVTVSS
VL: EIVLTQSPDFQSVTPKEKVTITCRASQSIGSSLHWYQQKPDQSPKLLIKYASQSFSGVPSRFSGSGSGTDFTLTINSLEAEDAAAYYCHQSSSLPFTFGPGTKVDIK
notes: also called NVP-ACZ885

IC50 [5]: 0.68 nM
B2: recombinant human soluble IL-1 type I receptor (receptor, UniProt P14778 18-332, looked up)
chain: LEADKCKEREEKIILVSSANEIDVRPCPLNPNEHKGTITWYKDDSKTPVSTEQASRIHQHKEKLWFVPAKVEDSGHYYCVVRNSSYCLRIKISAKFVENEPNLCYNAQAIFKQKLPVAGDGGLVCPYMEFFKNENNELPKLQWYKDCKPLLLDNIHFSGVKDRLIVMNVAEKHRGNYTCHASYTYLGKQYPITRVIEFITLEENKPTRPVIVSPANETMEVDLGSQIQLICNVTGQLSDIAYWKWNGSVIDEDDPVLGEDYYSVENPANKRRSTLITVLNISEIESRFYKHPFTCFAKNTHGIDAAYIQLIYPVT
notes: Called soluble; also called soluble human IL-1 type I receptor; recombinant human soluble receptor I
